Assay results: patent publication US10683329B2, “Dual-site BACE1 inhibitors” (priority 2014, dated 2020)
*1 amine or outer side, *2 acyl side, *3 side chain or, on linkers, in order; H or OH if unused. Where a SMILES comes first, the peptide text is derived from it. Where no end group is shown, it is not given here. [ ]: non-standard residue; d: D form. The star is where a group is joined. Succinyl(4-O-cholesteryl) = CC(C)CCC[C@@H](C)[C@H]1CC[C@H]2[C@@H]3CC=C4C[C@@H](OC(=O)CCC(=O)*)CC[C@]4(C)[C@H]3CC[C@]12C; MetSta(3S,4S) = CSCC[C@H](N[*:1])[C@@H](O)CC(=O)[*:2]; Sta = CC(C)C[C@H](N)[C@@H](O)CC(=O)O; PEG4 = NCCOCCOCCOCCOCCC(=O)O; PEG3 = NCCOCCOCCOCCC(=O)O; Ava = NCCCCC(=O)O; βAla = NCCC(=O)O

B1: Tyr-Pro-Lys-Phe-Ile-Pro-Leu-Gly-DLys-Gly-Glu-Val-Asn-Leu*Ala-Ala-Glu-DPro-Lys(Chol'ester')-NH2 x 3TFA (peptide)
peptide: YPKFIPLG[dK]GEVNLAAE[dP]K(Chol'ester')-NH2
modifications: also: Leu14*Ala15 Tang hydroxyethylene dipeptide isostere, trifluoroacetate salt (x 3TFA)

target: BACE1 enzyme (UniProt P56817 46-501, limits assumed); assay: cell-based or functional assay; conditions: not given
Sequence (P56817 46-501 limits assumed): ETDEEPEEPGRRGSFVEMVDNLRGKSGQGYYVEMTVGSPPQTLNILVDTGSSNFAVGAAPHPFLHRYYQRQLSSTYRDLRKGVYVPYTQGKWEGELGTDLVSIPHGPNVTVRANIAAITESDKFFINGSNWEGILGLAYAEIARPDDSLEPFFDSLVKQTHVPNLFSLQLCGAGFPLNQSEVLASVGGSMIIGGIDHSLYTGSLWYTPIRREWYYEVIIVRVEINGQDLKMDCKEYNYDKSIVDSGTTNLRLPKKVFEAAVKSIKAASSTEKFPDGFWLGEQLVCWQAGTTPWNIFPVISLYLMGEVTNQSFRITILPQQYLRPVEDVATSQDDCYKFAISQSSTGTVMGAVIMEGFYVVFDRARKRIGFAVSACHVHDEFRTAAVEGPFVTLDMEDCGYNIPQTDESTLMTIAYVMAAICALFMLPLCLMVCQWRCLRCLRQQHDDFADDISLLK

Molecule | IC50, cellular Aβ-lowering assay (Aβ40 in supernatant of HEK293 cells expressing human APP695)
YPYFIPLSGGEVN[Sta]VAE[dP]K(Chol'ester')-NH2 (also: TFA salt) [Tyr-Pro-Tyr-Phe-Ile-Pro-Leu-Ser-Gly-Gly-Glu-Val-Asn-Sta-Val-Ala-Glu-DPro-Lys(Chol'ester')-NH2 x TFA] | 52 pM
YPY[dK]IPLG[dK]GEVN[Sta]VAE[dP]K(Chol'ester')-NH2 (also: x 3TFA salt) | 6500 pM
YPYFIP[dK]G[dK]GEVN[Sta]VAE[dP]K(Chol'ester')-NH2 (also: x 3TFA salt) | 5.9 pM
YPYFIPKG[dK]GEVN[Sta]VAE[dP]K(Chol'ester')-NH2 (also: 3TFA salt) | 12 pM
YPYFIPL[dA]GGEVN[Sta]VAE[dP]K(Chol'ester')-NH2 (also: x TFA salt) [Tyr-Pro-Tyr-Phe-Ile-Pro-Leu-DAla-Gly-Gly-Glu-Val-Asn-Sta-Val-Ala-Glu-DPro-Lys(Chol'ester')-NH2 x TFA] | 55 pM
YPYFIPL[βAla]EVN[Sta]VAE[dP]K(Chol)-NH2 (also: TFA salt) [Tyr-Pro-Tyr-Phe-Ile-Pro-Leu-NH(CH2)2CO-Glu-Val-Asn-Sta-Val-Ala-Glu-DPro-Lys(Chol)-NH2 x TFA] | 2800 pM
B1 | 39 pM
YPYF[dK]PLG[dK]GEVN[Sta]VAE[dP]K(Chol'ester')-NH2 (also: x 3TFA salt) | 7600 pM
YPYFIPL[Ava]EVN[Sta]VAE[dP]K(Chol)-NH2 (also: TFA salt) [Tyr-Pro-Tyr-Phe-Ile-Pro-Leu-NH(CH2)4CO-Glu-Val-Asn-Sta-Val-Ala-Glu-DPro-Lys(Chol)-NH2 x TFA] | 840 pM
Y[dK]YFIPLG[dK]GEVN[Sta]VAE[dP]K(Chol'ester')-NH2 (also: x 3TFA salt) | 3400 pM
YPYFI[dK]LG[dK]GEVN[Sta]VAE[dP]K(Chol'ester')-NH2 (also: x 3TFA salt) | 450 pM
[dK]PYFIPLG[dK]GEVN[Sta]VAE[dP]K(Chol'ester')-NH2 (also: x 3TFA salt) | 13 pM
YPKFIPLG[dK]GEVN[MetSta(3S,4S)]VAEPK(Chol'ester')-NH2 (also: x 3TFA salt) | 61 pM
YPYFIPLG[dA]GEVN[Sta]VAE[dP]K(Chol'ester')-NH2 (also: x TFA salt) [Tyr-Pro-Tyr-Phe-Ile-Pro-Leu-Gly-DAla-Gly-Glu-Val-Asn-Sta-Val-Ala-Glu-DPro-Lys(Chol'ester')-NH2 x TFA] | 20 pM
YPYFIPLGGGGEVN[Sta]DAE[dP]K(Chol)-NH2 (also: x TFA salt) [Tyr-Pro-Tyr-Phe-Ile-Pro-Leu-Gly-Gly-Gly-Gly-Glu-Val-Asn-Sta-Asp-Ala-Glu-DPro-Lys(Chol)-NH2 x TFA] | 3300 pM
YP[dK]FIPLG[dK]GEVN[Sta]VAE[dP]K(Chol'ester')-NH2 (also: x 3TFA salt) | 780 pM
YPYFIPLGGGGEVN[Sta]VAE[dP]K(Chol)-NH2 (also: TFA salt) [Tyr-Pro-Tyr-Phe-Ile-Pro-Leu-Gly-Gly-Gly-Gly-Glu-Val-Asn-Sta-Val-Ala-Glu-DPro-Lys(Chol)-NH2 x TFA] | 42 pM
YPYFIPLGGGGGEVN[Sta]VAE[dP]K(Chol)-NH2 (also: TFA salt) [Tyr-Pro-Tyr-Phe-Ile-Pro-Leu-Gly-Gly-Gly-Gly-Gly-Glu-Val-Asn-Sta-Val-Ala-Glu-DPro-Lys(Chol)-NH2 x TFA] | 44 pM

target: T1, BACE1 (Homo sapiens, UniProt P56817); assay: Cellular Aβ-lowering assay (Aβ40 ELISA of culture supernatant); type: cell-based; conditions: not given
T1 construct: Human HEK293 cells which are stably transfected with a vector expressing a cDNA of the human APP wt gene (APP695); endogenous in cells; host or cells: HEK293 (human), stably transfected with human APP695 wt
T1 sequence (P56817 46-501): as the sequence (P56817 46-501 limits assumed) above
Protocol: The compounds were investigated in accordance with the test given hereinafter.
Cellular Aβ-Lowering Assay:
Human HEK293 cells which are stably transfected with a vector expressing a cDNA of the human APP wt gene (APP695) were used to assess the potency of the compounds in a cellular assay. The cells were seeded in 96-well microtiter plates in cell culture medium (Iscove, plus 10% (v/v) fetal bovine serum, glutamine, penicillin/streptomycin) to about 80% confluence and the compounds were added at a 10× concentration in 1/10 volume of medium without FCS containing 8% DMSO (final concentration of DMSO was kept at 0.8% v/v). After 18-20 hrs incubation at 37° C. and 5% CO2 in a humidified incubator the culture supernatant was harvested for the determination of Aβ40 concentrations. 96 well ELISA plates (e.g., Nunc MaxiSorb) were coated with monoclonal antibody which specifically recognize the C-terminal end of Aβ40 (Brockhaus et al., NeuroReport 9; 1481-1486; 1998). After blocking of non-specific binding sites with e.g. 1% BSA and washing, the culture supernatants were added in suitable dilutions together with a horseradish peroxidase-coupled Aβ detection antibody (e.g., antibody 4G8, Senetek, Maryland Heights, Mo.) and incubated for 5 to 7 hrs. Subsequently the wells of the microtiter plate were washed extensively with Tris-buffered saline containing 0.05% Tween 20 and the assay was developed with tetramethylbenzidine/H2O2 in citric acid buffer. After stopping the reaction with one volume 1 N H2SO4 the reaction was measured in an ELISA reader at 450 nm wavelength. The concentrations of Aβ in the culture supernatants were calculated from a standard curve obtained with known amounts of pure Aβ peptide.

Molecule | IC50
CC[C@H](C)[C@H](NC(=O)[C@H](Cc1ccccc1)NC(=O)[C@H](Cc1ccc(O)cc1)NC(=O)[C@@H]1CCCN1C(=O)[C@@H](N)Cc1ccc(O)cc1)C(=O)N1CCC[C@H]1C(=O)N[C@@H](CC(C)C)C(=O)NCC(=O)NCC(=O)NCC(=O)N[C@@H](CCC(=O)O)C(=O)N[C@H](C(=O)N[C@@H](CC(N)=O)C(=O)N[C@@H](CC(C)C)[C@@H](O)CC(=O)N[C@H](C(=O)N[C@@H](C)C(=O)N[C@@H](CCC(=O)O)C(=O)N1CCC[C@@H]1C(=O)N[C@@H](CCCCNC(=O)CCC(=O)O[C@H]1CC[C@@]2(C)C(=CC[C@H]3[C@@H]4CC[C@H]([C@H](C)CCCC(C)C)[C@@]4(C)CC[C@@H]32)C1)C(N)=O)C(C)C)C(C)C [Example 2, Tyr-Pro-Tyr-Phe-Ile-Pro-Leu-Gly-Gly-Gly-Glu-Val-Asn-Sta-Val-Ala-Glu-DPro-Lys(Chol)-NH2] | 27 pM

same assay, conditions: Aβ40 in supernatant of human HEK293 cells stably transfected with human APP wt (APP695); 18-20 hrs incubation; read-out: IC 50

Molecule | IC50
CC[C@H](C)[C@H](NC(=O)[C@H](Cc1ccccc1)NC(=O)[C@H](Cc1ccc(O)cc1)NC(=O)[C@@H]1CCCN1C(=O)[C@@H](N)Cc1ccc(O)cc1)C(=O)N1CCC[C@H]1C(=O)N[C@@H](CC(C)C)C(=O)NCCOCCOCCOCCC(=O)N[C@@H](CCC(=O)O)C(=O)N[C@H](C(=O)N[C@@H](CC(N)=O)C(=O)N[C@@H](CC(C)C)[C@@H](O)CC(=O)N[C@H](C(=O)N[C@@H](C)C(=O)N[C@@H](CCC(=O)O)C(=O)N1CCC[C@@H]1C(=O)N[C@@H](CCCCNC(=O)CCC(=O)O[C@H]1CC[C@@]2(C)C(=CC[C@H]3[C@@H]4CC[C@H]([C@H](C)CCCC(C)C)[C@@]4(C)CC[C@@H]32)C1)C(N)=O)C(C)C)C(C)C [Example 13, Tyr-Pro-Tyr-Phe-Ile-Pro-Leu-PEG(3)-Glu-Val-Asn-Sta-Val-Ala-Glu-DPro-Lys(Chol)-NH2] (H-YPYFIPL[PEG3]EVN[Sta]VAE[dP]K(Succinyl(4-O-cholesteryl))-NH2) | 43 pM
CC[C@H](C)[C@H](NC(=O)[C@H](Cc1ccccc1)NC(=O)[C@H](Cc1ccc(O)cc1)NC(=O)[C@@H]1CCCN1C(=O)[C@@H](N)Cc1ccc(O)cc1)C(=O)N1CCC[C@H]1C(=O)N[C@@H](CC(C)C)C(=O)NCCOCCOCCOCCOCCC(=O)N[C@@H](CCC(=O)O)C(=O)N[C@H](C(=O)N[C@@H](CC(N)=O)C(=O)N[C@@H](CC(C)C)[C@@H](O)CC(=O)N[C@H](C(=O)N[C@@H](C)C(=O)N[C@@H](CCC(=O)O)C(=O)N1CCC[C@@H]1C(=O)N[C@@H](CCCCNC(=O)CCC(=O)O[C@H]1CC[C@@]2(C)C(=CC[C@H]3[C@@H]4CC[C@H]([C@H](C)CCCC(C)C)[C@@]4(C)CC[C@@H]32)C1)C(N)=O)C(C)C)C(C)C [Example 14, Tyr-Pro-Tyr-Phe-Ile-Pro-Leu-PEG(4)-Glu-Val-Asn-Sta-Val-Ala-Glu-DPro-Lys(Chol)-NH2] (H-YPYFIPL[PEG4]EVN[Sta]VAE[dP]K(Succinyl(4-O-cholesteryl))-NH2) | 27 pM
CC[C@H](C)[C@H](NC(=O)[C@H](Cc1ccccc1)NC(=O)[C@H](Cc1ccc(O)cc1)NC(=O)[C@@H]1CCCN1C(=O)[C@@H](N)Cc1ccc(O)cc1)C(=O)N1CCC[C@H]1C(=O)N[C@@H](CC(C)C)C(=O)NCC(=O)NCC(=O)NCC(=O)NCC(=O)N[C@@H](CCC(=O)O)C(=O)N[C@H](C(=O)N[C@@H](CC(N)=O)C(=O)N[C@@H](CCSC)[C@@H](O)CC(=O)N[C@H](C(=O)N[C@@H](C)C(=O)N[C@@H](CCC(=O)O)C(=O)N[C@H](Cc1ccccc1)C(=O)N[C@@H](CCCCNC(=O)CCC(=O)O[C@H]1CC[C@@]2(C)C(=CC[C@H]3[C@@H]4CC[C@H]([C@H](C)CCCC(C)C)[C@@]4(C)CC[C@@H]32)C1)C(N)=O)C(C)C)C(C)C [Example 24, Tyr-Pro-Tyr-Phe-Ile-Pro-Leu-Gly-Gly-Gly-Gly-Glu-Val-Asn-MetSta-Val-Ala-Glu-DPhe-Lys(Chol)-NH2] | 52 pM
